Experimental data reported in PMC9949482 (2021).

How the values were obtained:
GRIP-1 [1] = target: T1, GRIP-1 (Homo sapiens, UniProt Q15596); assay: thermal shift, van't Hoff to 25 °C
GRIP-1 [2] = target: T1, GRIP-1; assay: thermal shift

T1 sequence (Q15596 2-1464): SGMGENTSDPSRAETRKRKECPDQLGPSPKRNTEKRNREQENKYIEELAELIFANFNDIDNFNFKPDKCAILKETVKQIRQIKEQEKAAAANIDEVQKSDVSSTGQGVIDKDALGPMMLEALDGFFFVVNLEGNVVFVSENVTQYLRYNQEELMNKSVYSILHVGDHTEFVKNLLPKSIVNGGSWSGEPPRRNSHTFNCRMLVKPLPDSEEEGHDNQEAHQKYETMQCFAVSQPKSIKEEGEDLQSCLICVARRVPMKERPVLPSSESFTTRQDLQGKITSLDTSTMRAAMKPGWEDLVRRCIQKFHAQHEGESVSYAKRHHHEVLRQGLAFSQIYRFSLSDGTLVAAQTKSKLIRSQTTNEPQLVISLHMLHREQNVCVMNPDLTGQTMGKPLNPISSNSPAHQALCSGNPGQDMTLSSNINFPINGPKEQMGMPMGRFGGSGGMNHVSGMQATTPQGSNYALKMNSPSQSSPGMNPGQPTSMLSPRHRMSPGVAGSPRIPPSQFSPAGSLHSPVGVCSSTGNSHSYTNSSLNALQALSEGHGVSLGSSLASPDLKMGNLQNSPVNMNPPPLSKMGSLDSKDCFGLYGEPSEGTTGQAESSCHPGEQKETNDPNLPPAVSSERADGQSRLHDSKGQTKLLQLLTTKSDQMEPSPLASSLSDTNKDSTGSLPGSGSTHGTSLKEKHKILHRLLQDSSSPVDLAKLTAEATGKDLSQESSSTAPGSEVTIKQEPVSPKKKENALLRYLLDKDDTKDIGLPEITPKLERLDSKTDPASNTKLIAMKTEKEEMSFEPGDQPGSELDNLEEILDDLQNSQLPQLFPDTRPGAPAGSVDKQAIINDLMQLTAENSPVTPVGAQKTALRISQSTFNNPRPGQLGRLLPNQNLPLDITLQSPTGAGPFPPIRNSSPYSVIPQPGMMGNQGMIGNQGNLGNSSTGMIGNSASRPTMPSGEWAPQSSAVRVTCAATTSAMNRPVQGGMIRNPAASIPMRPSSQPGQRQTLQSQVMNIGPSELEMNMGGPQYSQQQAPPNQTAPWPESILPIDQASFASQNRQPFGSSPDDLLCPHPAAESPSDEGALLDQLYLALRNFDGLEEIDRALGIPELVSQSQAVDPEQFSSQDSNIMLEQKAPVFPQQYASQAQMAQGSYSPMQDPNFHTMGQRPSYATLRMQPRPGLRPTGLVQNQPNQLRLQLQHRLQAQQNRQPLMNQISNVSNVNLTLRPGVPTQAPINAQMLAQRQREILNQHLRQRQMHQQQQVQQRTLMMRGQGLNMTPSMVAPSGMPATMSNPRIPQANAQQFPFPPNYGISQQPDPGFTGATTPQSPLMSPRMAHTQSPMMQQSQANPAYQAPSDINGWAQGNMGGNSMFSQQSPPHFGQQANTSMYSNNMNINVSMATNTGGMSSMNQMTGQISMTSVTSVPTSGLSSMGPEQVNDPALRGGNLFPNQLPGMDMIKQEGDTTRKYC

Kd (GRIP-1 [1]) [µM] | Kd (GRIP-1 [2]) [µM] | Binder
1.8 | 24 | RXRα LBD (protein, UAB111) NEDMPVERILEAELAVEPKTETYVEANMGLNPSSPNDPVTNICQAADKQLFTLVEWAKRIPHFSELPLDDQVILLRAGWNELLIASFSHRSIAVKDGILLATGLHVHRNSAHSAGVGAIFDRVLTELVSKMRDMQMDKTELGCLRAIVLFNPDSKGLSNPAEVEALREKVYASLEAYCKHKYPEQPGRFAKLLLRLPALRSIGLKCLEHLFFFKLIGDTPIDTFLMEMLEAP
1.5 | 26 | RXRα LBD (protein, UAB110) NEDMPVERILEAELAVEPKTETYVEANMGLNPSSPNDPVTNICQAADKQLFTLVEWAKRIPHFSELPLDDQVILLRAGWNELLIASFSHRSIAVKDGILLATGLHVHRNSAHSAGVGAIFDRVLTELVSKMRDMQMDKTELGCLRAIVLFNPDSKGLSNPAEVEALREKVYASLEAYCKHKYPEQPGRFAKLLLRLPALRSIGLKCLEHLFFFKLIGDTPIDTFLMEMLEAP
0.74 | 22 | RXRα LBD (protein, UAB30) NEDMPVERILEAELAVEPKTETYVEANMGLNPSSPNDPVTNICQAADKQLFTLVEWAKRIPHFSELPLDDQVILLRAGWNELLIASFSHRSIAVKDGILLATGLHVHRNSAHSAGVGAIFDRVLTELVSKMRDMQMDKTELGCLRAIVLFNPDSKGLSNPAEVEALREKVYASLEAYCKHKYPEQPGRFAKLLLRLPALRSIGLKCLEHLFFFKLIGDTPIDTFLMEMLEAP
